Experimental data published in patent US20140057807A1 (UNIVERSITY OF CHICAGO, published 2014).

Biological target: T1, human serum albumin (human, UniProt P02768 25-609)
T1 construct: also called HSA
Test: cradle library selection hit

T1 sequence (P02768 25-609 limits assumed): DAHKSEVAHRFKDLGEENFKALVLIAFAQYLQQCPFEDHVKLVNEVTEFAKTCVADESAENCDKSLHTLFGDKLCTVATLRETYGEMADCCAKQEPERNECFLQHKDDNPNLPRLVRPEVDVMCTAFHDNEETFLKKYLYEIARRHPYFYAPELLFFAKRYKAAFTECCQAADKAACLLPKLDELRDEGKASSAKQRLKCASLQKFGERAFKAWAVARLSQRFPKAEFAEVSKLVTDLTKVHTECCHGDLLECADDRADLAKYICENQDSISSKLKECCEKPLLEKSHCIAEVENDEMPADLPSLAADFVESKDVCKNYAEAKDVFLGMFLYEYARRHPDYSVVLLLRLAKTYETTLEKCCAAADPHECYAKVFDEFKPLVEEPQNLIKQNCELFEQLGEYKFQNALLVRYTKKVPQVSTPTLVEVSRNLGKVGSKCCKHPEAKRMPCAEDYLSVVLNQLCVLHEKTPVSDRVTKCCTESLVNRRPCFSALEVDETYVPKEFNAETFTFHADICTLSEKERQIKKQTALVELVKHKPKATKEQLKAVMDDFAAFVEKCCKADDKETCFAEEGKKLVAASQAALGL

Binder	binding result
SEQ ID NO 161 (designed binder) PLSPPTNLHLEANPDTGVLTVSWERSTTRDITTYGIETEYDHSVGLEEVVHADQSSCTFDNLSPGLNYDVEVVTVGWGVYQRPISDTIIP	binds
SEQ ID NO 163 (designed binder) SLSPPTNLHLEANPDTGVLTVGWERSTTPGITSYSIDTAKDDVPYLEEVVHADQSSCTFDNLSPGLNYTVVVATVGWSVDGPISDTIIP	binds
SEQ ID NO 164 (designed binder) PLSPPTNLHLEANPDTGVLTVSWERSTTPDITYYEINTTGYYGFYPGGLEEVVHADQSSCTFDNLSPGLYYQVTVQTVVYSMWYHPISDTIIP	binds
SEQ ID NO 165 (designed binder) PLSPPTNLHLEANPDTGVLTVSWERSTTPDITYYGIWTLTWLQYYSYRWGLEEAVHADQSSCTFDNLSPGLVYLVYVGTVRSPMARPISDTIIP	binds
SEQ ID NO 166 (designed binder) PLSPPTNLHLEANPDTGVLTVSWERSTTPDITWYWIGTWYSGYMVGLEEVVHADQSSCTFDNLSPGLTYWVLVGTVVRSPSRRPISDTIIP	binds
SEQ ID NO 167 (designed binder) PLSPPTNLHLEANPDTGVLTVSWERSTTPDVTTYSIYTYGYWDSHYMSLEEVVHADQSRCTFDNLSPGLYYSVEVYTVYYGLYVVPISDTIIP	binds
SEQ ID NO 168 (designed binder) PLSPPTNLHLEANPDTGVLTVSWERSTTPDITTYGIETQTVEWVYYLEEVVHADQSSCTFDNLSPGLYYNVTVGTVMLDAAYPISDTIIP	binds
SEQ ID NO 169 (designed binder) PLSPPTNLHLEANPDTGVLTVSWERSTTPDITDYYIITRSRWGYLEEVVHADQSSCTFDNLSPGLRYHVYVWTVGHYRDPISDTIIP	binds
SEQ ID NO 170 (designed binder) PLSPPTNLHLEANPDTGVLTVSWERSTTPDITNYLIQTDYFAFIKGVLEEVVHADQSSCTFDNLSPGLYYYVGVDTVSVPSHGPISDTIIP	binds
SEQ ID NO 171 (designed binder) PLSPPTNLHLEANPDTGVLTVSWERSTTPDITYYTIATADYTYSYAHLEEVVHADQSSCTFDNLSPGLNYEVGVGTVSVYSYIGPISDTIIP	binds
SEQ ID NO 172 (designed binder) PLSPPTNLHLEANPDTGVLTVSWERSTTPDITYYSIDTWTFGQWGLEEVVHADQSSCTFDNLSPGLYYYVEVVTVYEWAYSYPISDTIIP	binds
SEQ ID NO 173 (designed binder) PLSPPTNLHLEANPDTGVLTVSWERSTTPDITMYAITTYEYSRAWQYLEEVVHADQSSCTFDNLSPGLTYYVEVYTVRYTWSDPISDTIIP	binds
SEQ ID NO 174 (designed binder) PLSPPTNLHLEANPDTGVLTVSWERSTTPDITDYNISTWLYTSVSVYTELEEVVHAGQSSCTFDNLSPGLAYVVYVWSTVWEHFYPSPISDTIIP	binds
SEQ ID NO 175 (designed binder) PLSPPTNLHLEANPDTGVLTVSWERSTTPDITWYWINTSLANVRMSLEEVVHADQSGCTFDNLSPGLYYDVQVRTVSAAEGYPISDTIIP	binds
SEQ ID NO 176 (designed binder) PLSPPTNLHLEANPDTGVLTVSWERSTTPDITKYIIYTGYGASYDLEEVVHADQSSCTFDNLSPGLKYTVTVWTVSYASQVPISDTIIP	binds
SEQ ID NO 177 (designed binder) PLSPPTNLHLEANPDTGVLTVSWERSTTPDITMYSIYTYDYTRNYVLEEAVHADQSSCTFDNLSPGLYGYYVGVGTVTGAGWHPISDTIIP	binds
SEQ ID NO 178 (designed binder) PLSPPTNLHLEVNPDTGVLTVSWERSTTPGITQYDIATLSYGGRSGGLEEVVHADQSSCTFDNLSPGLSYVVSVSTVTSNEYSAPISDTIIP	binds
SEQ ID NO 179 (designed binder) PLSPPTNLHLEANPDTGVLTVSWERSTTPDITMYDIKTIYYKAYYYGLEEVVHADQSSCTFDNLSPGLYYFVGVVTVERPRYYPISDTIIP	binds
SEQ ID NO 180 (designed binder) PLSPPTNLHLEANPDTGVLTVSWERSTTPDITYYYIDTNGGYWSYLEEVVHADQSSCTFDNLSPGLGYPVGYVRTVYAGWLKGPISDTIIP	binds
SEQ ID NO 181 (designed binder) PLSPPTNLHLEANPDTGVLTVSWERSTTPDITYYYIGTYQGTTYEHLEEVVHADQSSCTFDNLSPGLIYLVYVSTVYWDSMSSPISDTIIP	binds

Binder	binding result
SEQ ID NO 182 (designed binder) PLSPPANLRLEANPDTGVLTVSWERSTTPDITRYVIATGYGGSWYHLEEVVHADQSRCTFDNLSPGLAYYVDVYTVTPGEKHSPISDTIIP	binds
SEQ ID NO 183 (designed binder) PLSPPTNLHLEANPDTGVLTVSWERSTTPDITKYIISTYVDYGGYLEEVVHADQSSCTFDNLSPGLGYSVTVSTVSAGWDSPISDTIIP	binds
SEQ ID NO 184 (designed binder) PLSPPTNLHLEANPDTGVLTVSWERSTTPDITSYRISTEWRWRYTGLEEVVHADQSSCTFDNLSPGLIYGVGVSTVWKHNSQAPISDTIIP	binds
SEQ ID NO 185 (designed binder) PLSPPTNLHLEANPDTGVLTVSWERSTTPDITMYYISTGGSSYKPDRLEEVVHADQSSCTFDNLSPGLDYMVYVRTVMYYNRSPISDTIIP	binds
SEQ ID NO 186 (designed binder) PLSPPTNLHLEANPDTGVLTVSWERSTTPDITGYSIATYLTYSNLVGLEEVVHADQSSCTFDNLSPGLSYKVSVYTVYGYSYGPISDTIIP	binds
SEQ ID NO 187 (designed binder) PLSPPTNLHLEANPDTGVLTVSWERSTTSDITKYYIATWFGDYGYSLEEVVHADQSSCTFDNLSPGLQYGVSVATVKGGQAHYPISDTIIP	binds
SEQ ID NO 188 (designed binder) PLSPPTNLHLEANPDTGVLTVSWERSTTPDITKYYILTSGYWGGGLEEVVHADQSSCTFDNLSPGLTYLVSVWTVTHYAGYPISDTIIP	binds
SEQ ID NO 189 (designed binder) PLSPPTNLHLEANPDTGVLTVSWERSTTPDITYYSITTSFYYSELEEVVHADQSSCTFDNLSPGLKYMVSVSTVSYSVGSPISDTIIP	binds
SEQ ID NO 191 (designed binder) PLSPPTNLHLEANPDTGVLTVSWERSTTPDITRYYIRTSYVRHGRLEEVVHADQSSCTFDNLSPGLYYNVSVSTVGYYYMLPISDTIIP	binds
SEQ ID NO 192 (designed binder) PLSPPTNLHLEANPDTGVLTVSRERSTTPDITTYSIYTHSGALYVLEEVVHADQSSCTFDNPSPGLNYNVSVSTVHSRWRYGPISDTIIP	binds
SEQ ID NO 193 (designed binder) PLSPPTNLHLEANPDTGVLTVSWERSTTPDITMYGIVTIYTRYYSLEEVVHADQSSCTFDNLSPGLIYWVYVLTVYYSWYRPISDTIIP	binds
SEQ ID NO 194 (designed binder) PLSPPTNLHLEANPDTGVLTVSWERSTTPDITTYVIDTGAAVNYVLEEVVHADQSSCTFDNLSPGLQYSVDVVVTVWYSWYMPISDTIIP	binds
SEQ ID NO 195 (designed binder) PLSPPTNPHLEANPDTGVLTVSWERSTTPDITTYWIGTYYSADERLEEVVHADQSSCTFDNLSPGLYYAVVVGTVGVWYRVAPISDTIIP	binds
SEQ ID NO 196 (designed binder) PLSPPTNLHLEANPDTGVLTVSWERSTTPDITYYYIHTYYWKHWQSLEEVVHADQSSCTFDNLSPGLKYGVWVSTVYRVVYYPISDTIIP	binds
SEQ ID NO 197 (designed binder) PLSPPTNLHLEASPDTGVLTVSWERSTTPDITTYLILTYLGYSRVLEEVVHADQSSCTFDNLSPGLWYMVYVDTVGRVPYIGPISDTIIP	binds
SEQ ID NO 198 (designed binder) PLSPPTNLHLEANPDTGVLTVSWERSTTPDITVYYIYTYTYNADLILEEVVHADQSSCTFDNLSPGLIYSVYVGTVASDDGRPISDTIIP	binds
SEQ ID NO 199 (designed binder) PLSPPTNLHLEANPDTGVLTVSWERSTTPDITAYVIYTYSESDGRVLEEVVHADQSSCTFDNLSPGLRYSVKVSTVYYSYAYPISDTIIP	binds
SEQ ID NO 201 (designed binder) VSDVPRDLEVVAATPTSLLISWDAPAVTVRGYYISYYYHSTRDSQEFTVPGSKSTATISGLKPGVSYYVGVGAVWKKDYYFPISINYRT	binds
SEQ ID NO 202 (designed binder) VSDVPRDLEVVAATPTSLLISWDAPAVTVRYYYILYGDYNAYMDYAGQEFTVPGSKSTATISGLKPGVGYVEIDVYAVRTSEEQPISINYRT	binds
